The source of these data is patent publication US20130224191A1, “NOTUM PROTEIN MODULATORS AND METHODS OF USE” (priority 2010, published 2013).

One series concerns the target T1, murine Notum-His (Mus musculus, UniProt Q8R116).
T1 construct: His tag; made in house
T1 sequence (Q8R116 20-503): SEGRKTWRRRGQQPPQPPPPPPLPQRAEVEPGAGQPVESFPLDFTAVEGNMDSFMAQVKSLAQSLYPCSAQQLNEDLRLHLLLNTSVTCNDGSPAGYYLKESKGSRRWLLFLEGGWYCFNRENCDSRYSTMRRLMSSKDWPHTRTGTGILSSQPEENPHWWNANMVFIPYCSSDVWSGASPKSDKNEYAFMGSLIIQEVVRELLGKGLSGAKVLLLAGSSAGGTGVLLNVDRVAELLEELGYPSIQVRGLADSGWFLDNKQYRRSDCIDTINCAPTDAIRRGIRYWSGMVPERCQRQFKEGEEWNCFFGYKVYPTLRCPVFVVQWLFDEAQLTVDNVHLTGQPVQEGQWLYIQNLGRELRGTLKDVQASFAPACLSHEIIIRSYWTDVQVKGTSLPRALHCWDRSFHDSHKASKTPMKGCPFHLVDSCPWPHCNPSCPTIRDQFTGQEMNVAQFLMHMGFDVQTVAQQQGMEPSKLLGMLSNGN
Description: Neutralization of murine Notum in 293.TCF assay. In kind it is cell-based. As to the method: Using the 293.TCF cells, purified SC2.D2.2 and SC2.A106 antibodies were tested for their ability to neutralize murine Notum-His or macaque Notum-Fc activity as follows. 2.5×10^4 293.TCF cells were plated per well of a 96-well tissue culture plate in 50 μL of serum-free medium. After 23 hours of serum starvation, 10 μL of DMEM+0.2% FBS containing the Notum proteins at various concentrations were mixed with 15 μL of purified antibody at various concentrations, and allowed to incubate for 5 minutes at room temperature. The 25 μL antibody/Notum mixture was then added to the 293.TCF cells. After 1 hour, 25 μL of Wnt3A or control L-cell CM were added to each well. Eighteen hours after addition of CM, 100 μL of One-Glo solution (ProMega Corp.) was added to each well. The contents of each well were mixed thoroughly to lyse the cells, 100 μL of lysate transferred to black 96-well plates, and the luminescence read after 5 minutes.

The target of series [1] is T2, Notum being secreted from the 293-Notum cells (Homo sapiens, UniProt Q6P988).
T2 construct: expressed in transfected cells; host or cells: 293T (293.Notum)
T2 sequence (Q6P988 20-496): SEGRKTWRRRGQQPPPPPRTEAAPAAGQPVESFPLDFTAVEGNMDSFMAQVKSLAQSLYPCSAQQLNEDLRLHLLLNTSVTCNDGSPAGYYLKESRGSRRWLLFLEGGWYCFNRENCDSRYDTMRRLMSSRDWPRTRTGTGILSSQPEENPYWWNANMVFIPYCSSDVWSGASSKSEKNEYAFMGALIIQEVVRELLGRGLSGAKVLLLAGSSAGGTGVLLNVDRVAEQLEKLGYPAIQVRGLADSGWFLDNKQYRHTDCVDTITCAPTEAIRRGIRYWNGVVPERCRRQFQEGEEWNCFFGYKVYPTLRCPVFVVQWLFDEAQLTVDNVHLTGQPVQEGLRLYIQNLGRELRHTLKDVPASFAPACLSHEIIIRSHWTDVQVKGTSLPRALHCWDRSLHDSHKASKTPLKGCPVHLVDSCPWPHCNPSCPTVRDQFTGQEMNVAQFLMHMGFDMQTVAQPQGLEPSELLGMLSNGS
Briefly: Co-culture Wnt3A assay, effector cells with 293.TCF reporter cells. In kind it is cell-based. The note with it: antibody 10 μg/mL. The protocol:
In order to more closely model the behavior of Notum producing cells in vivo, co-culture experiments were performed in which effector cells, either parental 293T cells (293.null) or 293T cells expressing soluble Notum (i.e., 293.Notum cells), were mixed in varying ratios with reporter 293.TCF cells. Notum activity or inhibition in the presence of antibodies was then determined from these cell mixtures after treatment with Wnt3A CM. Briefly, three different ratios of effector to reporter cells were tested: 2:1, 1:[…], corresponding to 5×10^4: 2.5×10^4, 2.5×10^4: 2.5×10^4 cells, or 2.5×10^41.0×10^4 cells per well of a 96-well plate by mixing the cells in 50 μL serum free medium per well prior to plating.
For the antibody antagonism experiments, the mixture of cells was plated into wells containing 25 μL of DMEM+0.2% FBS and antibody at a final concentration of 10 μg/mL. Twenty-three hours after plating, 25 μL of Wnt3A or control L-cell CM were added to each well. Eighteen hours after addition of CM, 100 μL of One-Glo solution (ProMega Corp.) was added to each well. The contents of each well were then mixed thoroughly to lyse the cells, 100 μL of lysate transferred to black 96-well plates, and the luminescence read after 5 minutes.

The target of series [2] is T3, porcine pancreatic lipase (Sus scrofa, UniProt P00591).
T3 construct: purchased Sigma Aldrich
T3 sequence (P00591 1-450): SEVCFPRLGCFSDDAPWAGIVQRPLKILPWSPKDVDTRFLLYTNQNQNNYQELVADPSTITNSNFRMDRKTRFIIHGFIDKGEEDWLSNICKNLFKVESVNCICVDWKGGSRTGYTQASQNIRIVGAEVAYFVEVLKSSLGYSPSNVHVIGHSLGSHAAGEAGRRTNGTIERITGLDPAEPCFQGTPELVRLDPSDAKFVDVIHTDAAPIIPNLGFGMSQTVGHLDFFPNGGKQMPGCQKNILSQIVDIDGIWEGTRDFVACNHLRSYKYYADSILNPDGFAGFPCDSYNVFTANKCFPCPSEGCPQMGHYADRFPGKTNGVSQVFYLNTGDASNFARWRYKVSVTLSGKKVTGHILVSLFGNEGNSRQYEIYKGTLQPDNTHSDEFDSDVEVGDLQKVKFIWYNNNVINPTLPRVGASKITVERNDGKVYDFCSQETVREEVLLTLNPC
Description: Inhibition of porcine pancreatic lipase (Tween 20). The format is biochemical. The protocol: Briefly, recombinant hNotum (1 μg/well) was added to an assay buffer containing 50 mM Tris, pH 7.4, 33.3 mM CaCl2, and 0.33% Tween-20. When the Tween 20 monolauryl group is cleaved by lipases (e.g. hNotum), the free fatty acid forms an insoluble complex with the Ca^2+ cations resulting in a turbid solution, the OD of which can be measured at 405 nm to provide a measure of lipase activity. As a positive control, the activity of porcine pancreatic lipase (Sigma Aldrich) was measured in the same assay.
In order to take advantage of this enzymatic property and further exemplify the properties of the present invention, an assay was run to determine the effects of Notum modulators on the lipolytic activity of Notum. To that end, various concentrations of SC2.D2.2 were preincubated with hNotum for a set period prior to adding the mixture to the assay buffer and measuring the resulting enzymatic activity as described above. The results of the assay are graphically represented in FIG. 20

Another series deals with macaque Notum N141D. Description: Neutralization of point mutated macaque Notum, TCF assay. The format is cell-based. The text has this: Similarly, the macaque residue at this position was point mutated to the human residue (N141D). […] However, these point mutants differed in their ability to be neutralized by SC2.D2.2 (FIG. 26).

“Also recorded” adds a separate entry of the source.

B1: SC2.D2.2 (antibody, V domains shown)
VH: DVQLVESGGGLVQPGGSRKISCAASGFTFSSYGMHWVRQAPEKGLEWVAYISSSTVTTYYADTVKGRFTISRDNANNTLFLQMTSLRSEDTAMYYCSRQNWDGGYFDVWGAGTTVTVSS
VL: DIVLTQSLASLAVSLGQRATISCRASKSVSSSGYSYMHWYQQKPGQPPKLLIYLASNLESGVPARFSGSGSGTDFTLNIHPVEEEDAATYYCQHSRALPLTFGAGTKLELKR
notes: also called murine SC2.D2.2
Consider B1, for which, in the series with murine Notum-His, the “inhibition of murine Notum activity” value was “did not inhibit; also recorded: without inhibiting murine or macaque versions of the protein”. Moreover, the Wnt3A-induced luciferase entry in series [1] (co-cultures of 293.Notum and 293.TCF cells) was “increases the amount of Wnt3A-induced luciferase”. Besides, the “induction of luciferase activity by Wnt3A CM” value in series [1] (co-cultures of 293.null and 293.TCF cells) is “little effect”. Besides, the “effect on lipase activity of porcine pancreatic lipase” value in series [2] is on record as “not severely impacting the lipase activity”. Also, the “neutralization of mutant Notum protein” value with macaque Notum N141D is “now enabled SC2.D2.2 to neutralize the mutant protein”.
